Experimental data reported in paper PMC4891089, “The transcription factor GATA1 and the histone methyltransferase SET7 interact to promote VEGF-mediated angiogenesis and tumor growth and predict clinical outcome of breast cancer” (Oncotarget, 2016).

Target: T1, His-tagged GATA1 (UniProt P15976 1-413)
T1 construct: GATA1; also called purified His-tagged GATA1 protein; source: His fusion from pET-28a, expressed and purified according to the manufacturers' instructions (Qiagen)
Experiment: pull-down; GST pull-down: purified His fusion protein incubated with GST fusion protein bound to GST beads for 4 h at 4°C; immunoblot
Settings: both partners purified

T1 sequence (P15976 whole entry, the tested form may be a part): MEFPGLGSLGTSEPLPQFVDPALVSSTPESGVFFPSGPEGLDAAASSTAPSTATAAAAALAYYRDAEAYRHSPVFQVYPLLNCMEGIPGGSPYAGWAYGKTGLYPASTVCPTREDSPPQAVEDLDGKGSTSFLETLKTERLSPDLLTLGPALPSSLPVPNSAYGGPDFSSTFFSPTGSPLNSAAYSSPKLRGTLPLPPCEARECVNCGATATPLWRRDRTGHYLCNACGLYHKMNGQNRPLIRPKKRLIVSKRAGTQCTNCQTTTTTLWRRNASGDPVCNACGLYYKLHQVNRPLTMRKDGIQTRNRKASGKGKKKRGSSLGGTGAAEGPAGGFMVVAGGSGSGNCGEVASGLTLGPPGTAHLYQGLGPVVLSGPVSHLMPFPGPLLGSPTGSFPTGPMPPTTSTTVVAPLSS

- binding result: binds
B1: GST-SET7 (enzyme, UniProt Q8WTS6 1-366, looked up)
chain: MDSDDEMVEEAVEGHLDDDGLPHGFCTVTYSSTDRFEGNFVHGEKNGRGKFFFFDGSTLEGYYVDDALQGQGVYTYEDGGVLQGTYVDGELNGPAQEYDTDGRLIFKGQYKDNIRHGVCWIYYPDGGSLVGEVNEDGEMTGEKIAYVYPDERTALYGKFIDGEMIEGKLATLMSTEEGRPHFELMPGNSVYHFDKSTSSCISTNALLPDPYESERVYVAESLISSAGEGLFSKVAVGPNTVMSFYNGVRITHQEVDSRDWALNGNTLSLDEETVIDVPEPYNHVSKYCASLGHKANHSFTPNCIYDMFVHPRFGPIKCIRTLRAVEADEELTVAYGYDHSPPGKSGPEAPEWYQVELKAFQATQQK
notes: SET7 (SETD7); also called purified GST-SET7; source: GST fusion from pGEX-KG, expressed and purified according to the manufacturers' instructions (Amersham Pharmacia)
